The source of these data is patent US20180037649A1 (OSAKA UNIVERSITY, published 2018).

Assay [1] addresses p85α of S2-CP8 cells (endogenous) (human, UniProt P27986 2-724). As to the kind of experiment: co-IP with anti-CKAP4 antibody from S2-CP8 cell lysate (control shRNA or Dkk1 shRNA), immunoblot. As to the method:
A lysate (Input) of S2-CP8 cells in which control shRNA or Dkk1 shRNA (Dkk1) was stably expressed was prepared. The lysate was immunoprecipitated with an anti-CKAP4 antibody. Subsequently, the cell lysate (Input) and the immunoprecipitates (IP) were subjected to the detection of p85α, p110β, CKAP4 and Dkk1 using an anti-p85α antibody, an anti-p110β antibody, an anti-CKAP4 antibody and an anti-Dkk1 antibody, respectively.

Assay [2] deals with T1, deletion mutant CKAP4-HA ΔLZ (human, UniProt Q07065 1-602).
T1 construct: not shown: HA tag
T1 sequence: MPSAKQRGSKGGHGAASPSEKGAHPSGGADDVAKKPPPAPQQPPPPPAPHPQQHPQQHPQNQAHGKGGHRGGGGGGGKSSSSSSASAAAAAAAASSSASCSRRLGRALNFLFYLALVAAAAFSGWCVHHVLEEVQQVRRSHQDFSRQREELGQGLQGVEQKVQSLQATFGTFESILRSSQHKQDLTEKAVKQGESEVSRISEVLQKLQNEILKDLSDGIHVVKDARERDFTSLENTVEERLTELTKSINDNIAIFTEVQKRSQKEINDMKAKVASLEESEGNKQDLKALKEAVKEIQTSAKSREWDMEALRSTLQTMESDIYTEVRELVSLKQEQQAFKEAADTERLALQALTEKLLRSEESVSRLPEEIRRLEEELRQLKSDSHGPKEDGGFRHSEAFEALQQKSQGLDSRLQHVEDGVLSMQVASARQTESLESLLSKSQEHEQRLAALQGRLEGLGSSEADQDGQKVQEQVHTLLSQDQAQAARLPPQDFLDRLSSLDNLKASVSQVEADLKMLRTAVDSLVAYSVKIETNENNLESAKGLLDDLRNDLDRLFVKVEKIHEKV
The assay can be described thus: co-IP with anti-FLAG antibody from X293T/Dkk1-FLAG cell lysate, immunoblot with anti-HA antibody. The text has this:
A lysate (Input) of X293T/Dkk1-FLAG cells in which wild-type CKAP4-HA (WT) or a deletion mutant CKAP4-HA (ΔLZ) was transiently expressed was immunoprecipitated with an anti-FLAG antibody, and then the cell lysate (Input) and the immunoprecipitates (IP) were subjected to the detection of HA and Dkk1 using an anti-HA antibody and an anti-Dkk1 antibody, respectively. The results are shown in the lower right panel in FIG. 2 (e). […] Namely, it was confirmed that a CRD-1 domain located on the N-terminal side of Dkk1 and a leucine zipper domain of CKAP4 were necessary for the binding between Dkk1 and CKAP4.

p85α of S2-CP8 cells (endogenous), sequence (P27986 2-724): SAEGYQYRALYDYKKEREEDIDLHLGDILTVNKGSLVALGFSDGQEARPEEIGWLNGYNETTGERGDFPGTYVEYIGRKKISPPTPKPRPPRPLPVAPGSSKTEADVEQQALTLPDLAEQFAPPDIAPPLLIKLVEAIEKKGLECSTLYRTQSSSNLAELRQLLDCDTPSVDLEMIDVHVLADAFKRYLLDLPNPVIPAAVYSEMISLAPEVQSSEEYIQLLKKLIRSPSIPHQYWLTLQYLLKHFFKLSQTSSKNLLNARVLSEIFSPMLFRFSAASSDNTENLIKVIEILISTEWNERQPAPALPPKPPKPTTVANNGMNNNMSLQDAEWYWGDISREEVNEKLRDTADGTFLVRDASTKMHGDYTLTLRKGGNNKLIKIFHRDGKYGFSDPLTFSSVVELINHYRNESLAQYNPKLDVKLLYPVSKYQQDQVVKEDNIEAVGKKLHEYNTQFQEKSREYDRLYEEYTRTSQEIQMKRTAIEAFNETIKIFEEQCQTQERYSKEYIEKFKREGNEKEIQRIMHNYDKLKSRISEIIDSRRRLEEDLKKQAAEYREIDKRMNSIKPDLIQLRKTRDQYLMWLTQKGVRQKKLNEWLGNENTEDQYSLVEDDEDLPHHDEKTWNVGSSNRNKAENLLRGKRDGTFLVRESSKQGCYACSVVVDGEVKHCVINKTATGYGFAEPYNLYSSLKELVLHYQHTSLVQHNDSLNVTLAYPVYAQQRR

B1: CKAP4 of S2-CP8 cells (endogenous) (receptor)
chain: MPSAKQRGSKGGHGAASPSEKGAHPSGGADDVAKKPPPAPQQPPPPPAPHPQQHPQQHPQNQAHGKGGHRGGGGGGGKSSSSSSASAAAAAAAASSSASCSRRLGRALNFLFYLALVAAAAFSGWCVHHVLEEVQQVRRSHQDFSRQREELGQGLQGVEQKVQSLQATFGTFESILRSSQHKQDLTEKAVKQGESEVSRISEVLQKLQNEILKDLSDGIHVVKDARERDFTSLENTVEERLTELTKSINDNIAIFTEVQKRSQKEINDMKAKVASLEESEGNKQDLKALKEAVKEIQTSAKSREWDMEALRSTLQTMESDIYTEVRELVSLKQEQQAFKEAADTERLALQALTEKLLRSEESVSRLPEEIRRLEEELRQLKSDSHGPKEDGGFRHSEAFEALQQKSQGLDSRLQHVEDGVLSMQVASARQTESLESLLSKSQEHEQRLAALQGRLEGLGSSEADQDGLASTVRSLGETQLVLYGDVEELKRSVGELPSTVESLQKVQEQVHTLLSQDQAQAARLPPQDFLDRLSSLDNLKASVSQVEADLKMLRTAVDSLVAYSVKIETNENNLESAKGLLDDLRNDLDRLFVKVEKIHEKV
notes: Used in lysates (IP, immunoblot) and on unfixed cells (staining)
For B1, in assay [1], the binding result is recorded as “binds”.

B2: Dkk1-FLAG (wild-type human Dkk1 tagged with FLAG at the C-terminal) (ligand, UniProt O94907 32-266, looked up)
chain: TLNSVLNSNAIKNLPPPLGGAAGHPGSAVSAAPGILYPGGNKYQTIDNYQPYPCAEDEECGTDEYCASPTRGGDAGVQICLACRKRRKRCMRHAMCCPGNYCKNGICVSSDQNHFRGEIEETITESFGNDHSTLDGYSRRTTLSSKMYHTKGQEGSVCLRSSDCASGLCCARHFWSKICKPVLKEGQVCTKHRRKGSHGLEIFQRCYCGEGLSCRIQKDHHQASNSSRLHTCQRH
notes: Expressed in MDCK or X293T cells; pulled down from cell lysates with an anti-FLAG antibody; also called WT-FLAG; wild-type Dkk1-FLAG (WT); not shown: FLAG tag at the C-terminal
For the molecule B2, in assay [2], the binding result is on record as “no binding”.
